{"source": "patent US20070231258A1", "about": "“Peptide conjugates” (KARYON CTT LTD., priority 2006, published 2007)", "key": {"[1]": {"assay": "Plasma protein binding and plasma stability assay in vitro (ultrafiltration, LC/MS/MS)", "type": "in vitro ADME, mouse", "description": "The plasma protein binding and plasma stability of the targeting agents MJ143 (lactam-bridged; described in Example 8) and MJ142 (cystine-bridged; described below) comprising functional peptide LRSGRG was compared in mouse plasma in vitro.\nThe study compounds were spiked to mouse plasma to give 10 μM concentration. The samples of 1.5 ml were incubated at 37° C. and 200 μl aliquots were taken after 0 min, 30 min, 60 min, 2 h and 4 h. Incubations were made in duplicate. The aliquot samples were ultrafiltrated for 30 min (Millipore YM-10 filters, 10 kDa cut-off, 12 000 rpm) and the supernatants were analysed using LC/MS/MS. The sample concentrations were quantified against calibration curves created using standard samples spiked to ultrafiltrated mouse plasma to concentrations 0.1, 0.5, 1, 5 and 10 μM.\nA Finnigan Surveyor chromatographic system (Thermo-Finnigan, San Jose, Calif., USA) with autosampler, vacuum degasser and column oven was used in the analysis. The analytical column was a Waters SymmetryShield RP18, 2.1×50 mm, 3.5 μm together with Phenomenex Luna C18 precolumn, 4.0×2.0 mm, 3.0 μm (Phenomenex, Torrance, Calif., USA). The eluents were (A) 0.02% acetic acid in water (pH 3.6) and (B) methanol, with flow rate of 300 μl/min. The elution gradient was from 5% B to 90% B in five minutes, followed by column equilibration. The column oven temperature was 30° C. LC/MS/MS data was acquired with a Finnigan TSQ Discovery MAX triple quadrupole mass spectrometer equipped with an Ion MAX electrospray ionization source. Before LC/MS/MS runs, the instrument was tuned with a 5 μg/ml solution of study compounds to obtain the maximum sensitivity with multiple reaction mode. The collision gas was argon at 1.5 mTorr."}, "in vitro": {"assay": "in vitro", "conditions": "human, plasma", "quoted_text": "(§1) The peptide conjugates (10-20 μg) was added to a human blood plasma/PBS mixture (1:1) in a total volume of 500 μl and incubated at 37° C. After incubation 100 μl per time point (0 and 240 min) was transferred to YM-10 (Microcon, cut-off 10000 MW; manufacturer Millipore), centrifuged (10000 RPM) 15 min at 4° C. 50 μl of the spin-through material was analyzed by HPLC.\n(§2) HPLC: Waters 626 pump, 600S controller, Waters 996 photo diode array detector. Column: C18, 300 Å, 5 μm, 2.1×250 mm. Eluents for the non-conjugated functional peptides: A 0.1% TFA, B 0.075% TFA/100% ACN. Gradient: 0-100% B in 60 min. Flow: 180 μl/min. Loop: 50 μl.\n(§3) Eluents for the functional peptide conjugates: Eluent A: 0.05 M ammonium acetate; B: 50% 0.05 M ammonium acetate/50% ACN. Gradient: 0-100% B in 60 min. Flow: 180 μl/min. Loop: 50 μl. One-minute fractions were collected and analyzed with MALDI-TOF.\n(§4) Peptide mass: Bruker Ultraflex MALDI-TOF, N2-laser 337 nm, matrix saturated solution of α-cyano-4-hydroxycinnamic acid, reflector mode."}, "C8161 tumors": {"tested_on": "C8161 tumors", "assay": "Targeting peptide biodistribution (Eu content of tissues) in C8161 tumor-bearing mice", "type": "in vivo, athymic nude mice", "conditions": "4 nmol i.v. tail vein, 20 min circulation; for accumulation of europium in tumor compared to normal tissue: kidney high due to excretion; for ratio of tumor Eu-content to muscle Eu-content: perfused", "description": "It is shown that the tested conjugates according to the present invention selectively target to primary tumors in vivo but not to normal tissues or organs.\nFor production of experimental tumors 1×10^6 cells of C8161 line (described in Example 9) were injected subcutaneously into the flank of athymic nude mice strain (Harlan Laboratories). Tumors were harvested when they had reached a weight of about 0.1 g. Tumor-bearing mice were anesthetized by 0.02 ml/g body weight of Avertin [10 g 2,2,2-tribromoethanol (Fluka) in 10 ml 2-methyl-2-butanol (Sigma Aldrich)] intraperitoneally (i.p.).\nTo determine the biodistribution pattern of the conjugates, 4 nmol of MJ015 or MJ053 was injected into the tail vein of athymic nude mice in a volume of 100 μl in physiological saline solution (Baxter). The conjugate was allowed to circulate for 20 min. Mice were then perfused through the heart with 60 ml of physiological saline. Organs and tissues, including tumors were collected and weighed.\nFor determination of the Eu content of the tumors and control organs, 0.1-0.2 g of tissue was transferred into lysis buffer (20 mM Tris-HCl, 150 mM NaCl, 1% Nonident P40, pH 7.5) and homogenized. Eu-content was analyzed from tissue lysates prepared into the DELFIA Inducer solution (Perkin Elmer Wallac Ltd., Turku, Finland) and transferred to DELFIA Micro titration strip plates (Perkin Elmer Wallac Ltd, Turku, Finland). Time-resolved fluorescence was measured after incubation with a Wallac 1420 VICTOR3™ V plate reader using a D615 nm filter."}, "[2]": {"assay": "Plasma stability of the peptide conjugates in human blood plasma/PBS (HPLC)", "quoted_text": "as §1, §2, §3, §4"}}, "note": "*1 amine or outer side, *2 acyl side, *3 side chain or, on linkers, in order; H or OH if unused. Where a SMILES comes first, the peptide text is derived from it. Bridges are numbered along the chain shown (N, C = ends). Primed or numbered codes have the meaning given here. [ ]: non-standard residue; d: D form. The star is where a group is joined. X1 = O=C(O)CN(CCN(CC(=O)O)CC(Cc1ccc(NC(=S)NCCOCCOCCN*)cc1)N(CC(=O)O)CC(=O)O)CC(=O)O; DTPA′ = diethylenetriaminepentaacetic acid chelator; NHCH2CH2SCH2CO = O=C(CSCCN[*:1])[*:2]; NH(CH2CH2O)2CH2CH2NH2 = NCCOCCOCCN*; AEEEA = NCCOCCOCCOCC(=O)O; PEG3 = NCCOCCOCCOCCC(=O)O; AABz = not defined here", "data": [{"compound": "CC(=O)N[C@H]1CSSC[C@@H](C(=O)NCC(=O)N[C@@H](C)C(=O)NCCOCCOCCNC(=S)Nc2ccc(CC(CN(CCN(CC(=O)O)CC(=O)O)CC(=O)O)N(CC(=O)O)CC(=O)O)cc2)NC(=O)CNC(=O)[C@H](CCCNC(=N)N)NC(=O)CNC(=O)[C@H](CO)NC(=O)[C@H](CCCNC(=N)N)NC(=O)[C@H](CC(C)C)NC1=O", "note": "(stereo partly shown) [MJ142, reference compound] (Ac-CLRSGRGCGA-X1; disulfide 1-8)", "values": [{"measurement": "fraction unbound at 0 h, 10 μM", "setting": "[1]; 0 h, mouse plasma, 10 μM, 37° C., ultrafiltrate, read-out: Peptide-DTPA[In] relative remaining peak areas/unbound fraction (%)", "value": 0.48}, {"measurement": "fraction unbound at 30 min, 10 μM", "setting": "[1]; 30 min, mouse plasma, 10 μM, 37° C., ultrafiltrate, read-out: Peptide-DTPA[In] relative remaining peak areas/unbound fraction (%)", "value": 0.44}, {"measurement": "fraction unbound at 1 h, 10 μM", "setting": "[1]; 1 h, mouse plasma, 10 μM, 37° C., ultrafiltrate, read-out: Peptide-DTPA[In] relative remaining peak areas/unbound fraction (%)", "value": 0.35}, {"measurement": "fraction unbound at 2 h, 10 μM", "setting": "[1]; 2 h, mouse plasma, 10 μM, 37° C., ultrafiltrate, read-out: Peptide-DTPA[In] relative remaining peak areas/unbound fraction (%)", "value": 0.19}, {"measurement": "fraction unbound at 4 h, 10 μM", "setting": "[1]; 4 h, mouse plasma, 10 μM, 37° C., ultrafiltrate, read-out: Peptide-DTPA[In] relative remaining peak areas/unbound fraction (%)", "value": 0.06}, {"measurement": "fraction unbound at 0 min, 10 μM", "setting": "[1]; mouse plasma, 0 min incubation, during the 30 min ultrafiltration period, read-out: disappearance due to protein binding (converted)", "value": "~0.48"}]}, {"compound": "CC(C)C[C@@H]1NC(=O)[C@@H](NC(=O)CN)CSSC[C@@H](C(=O)NCC(=O)NCCOCCOCCN)NC(=O)CNC(=O)[C@H](CCCNC(=N)N)NC(=O)CNC(=O)[C@H](CO)NC(=O)[C@H](CCCNC(=N)N)NC1=O", "note": "[KK12, Gly-Cys*-Leu-Arg-SerGly-Arg-Gly-Cys*-Gly-NH(CH2CH2O)2CH2CH2NH2, reference compound] (H-GCLRSGRGCG-{NH(CH2CH2O)2CH2CH2NH2}; disulfide 2-9; N-terminus assumed)", "values": [{"measurement": "remaining at 4 h", "setting": "in vitro", "value": 25, "unit": "%"}]}, {"compound": "a*LRSGRGE*-Teg-AEM-AABz-DTPA-Eu (LRSGRGE-{AEEEA-NHCH2CH2SCH2CO-AABz-DTPA′}; lactam N-7; not fully specified (N-terminus); reading uncertain; also: DTPA chelate of Eu) [MJ015]", "values": [{"measurement": "accumulation of europium in tumor compared to normal tissue", "setting": "C8161 tumors", "value": "accumulated strongly and selectively in C8161 tumors"}, {"measurement": "ratio of tumor Eu-content to muscle Eu-content", "setting": "C8161 tumors", "value": 7.1}]}, {"compound": "a*LRSGRGE*-Tegc-AEM-AABz-DTPA-In (LRSGRGE-{PEG3-NHCH2CH2SCH2CO-AABz-DTPA′}; lactam N-7; not fully specified (N-terminus); reading uncertain; also: In chelated by DTPA) [MJ143]", "values": [{"measurement": "Peptide-DTPA[In] relative remaining peak areas/unbound fraction (%)", "setting": "[1]; 0 h, mouse plasma, 10 μM, 37° C., ultrafiltrate", "value": 71, "unit": "%"}, {"measurement": "Peptide-DTPA[In] relative remaining peak areas/unbound fraction (%)", "setting": "[1]; 30 min, mouse plasma, 10 μM, 37° C., ultrafiltrate", "value": 71, "unit": "%"}, {"measurement": "Peptide-DTPA[In] relative remaining peak areas/unbound fraction (%)", "setting": "[1]; 1 h, mouse plasma, 10 μM, 37° C., ultrafiltrate", "value": 70, "unit": "%"}, {"measurement": "Peptide-DTPA[In] relative remaining peak areas/unbound fraction (%)", "setting": "[1]; 2 h, mouse plasma, 10 μM, 37° C., ultrafiltrate", "value": 66, "unit": "%"}, {"measurement": "Peptide-DTPA[In] relative remaining peak areas/unbound fraction (%)", "setting": "[1]; 4 h, mouse plasma, 10 μM, 37° C., ultrafiltrate", "value": 61, "unit": "%"}, {"measurement": "plasma protein binding, lactam-bridged vs cystine-bridged version", "setting": "[1]; mouse plasma in vitro", "value": "considerably lower plasma protein binding"}, {"measurement": "plasma stability, lactam-bridged vs cystine-bridged version", "setting": "[1]; mouse plasma in vitro", "value": "greatly more stable"}]}, {"compound": "a*LRSGRGE*-Teg-AEM-AABz-DTPA-Gd (LRSGRGE-{AEEEA-NHCH2CH2SCH2CO-AABz-DTPA′}; lactam N-7; not fully specified (N-terminus); reading uncertain; also: DTPA chelate of Gd) [MJ059]", "values": [{"measurement": "Observed compound peak heights prior to incubation", "setting": "[2]; 0 h, human blood plasma/PBS 1:1, 37° C.", "value": 100, "unit": "%"}, {"measurement": "Observed compound peak heights after four hours", "setting": "[2]; 4 h, human blood plasma/PBS 1:1, 37° C.", "value": 100, "unit": "%"}, {"measurement": "degradation during incubation in plasma", "setting": "[2]; 4 h incubation in human plasma", "value": "no degradation"}]}, {"compound": "CC(C)C[C@@H]1NC(=O)[C@@H](C)NC(=O)CC[C@@H](C(=O)NCCOCCOCCN)NC(=O)CNC(=O)[C@H](CCCNC(=N)N)NC(=O)CNC(=O)[C@H](CO)NC(=O)[C@H](CCCNC(=N)N)NC1=O", "note": "[KK51, D-Ala*-Leu-Arg-SerGly-Arg-Gly-Glu*-NH(CH2CH2O)2CH2CH2NH2] ([dA]LRSGRGE-{NH(CH2CH2O)2CH2CH2NH2}; lactam N-8)", "values": [{"measurement": "remaining at 4 h", "setting": "in vitro", "value": 92, "unit": "%"}]}, {"compound": "a*IREE*-Tegc-AEM-AABz-DTPA-Eu [MJ053]", "values": [{"measurement": "accumulation of europium in tumor compared to normal tissue", "setting": "C8161 tumors", "value": "accumulated strongly and selectively in C8161 tumors"}, {"measurement": "ratio of tumor Eu-content to muscle Eu-content", "setting": "C8161 tumors", "value": 3.9}]}]}
